Laboratory results reported in paper PMC9301129.

B1: UNC93B1-GFP, wild type [modified: N-glycosylated at N251 and N272; N-glycosylated at N251 and N272] [not stated] / TLR9-myc (in UNC93B1 KO iBMDMs) [not stated] (parent)
chain 1: MEVEPPLYPVAGAAGPQGDEDRHGVPDGPEAPLDELVGAYPNYNEEEEERRYYRRKRLGVVKNVLAASTGVTLTYGVYLGLLQMQLILHYDETYREVKYGNMGLPDIDSKMLMGINVTPIAALLYTPVLIRFFGTKWMMFLAVGIYALFVSTNYWERYYTLVPSAVALGMAIVPLWASMGNYITRMSQKYYEYSHYKEQDEQGPQQRPPRGSHAPYLLVFQAIFYSFFHLSFACAQLPMIYFLNNYLYDLNHTLINVQSCGTKSQGILNGFNKTVLRTLPRSKNLIVVESVLMAVAFLAMLMVLGLCGAAYRPTEEIDLRSVGWGNIFQLPFKHVRDFRLRHLVPFFIYSGFEVLFACTGFALGYGVCSMGLERLAYLLIAYSLGASASSVLGLLGLWLPRSVPLVAGAGLHLLLTLSLFFWAPAPRVLQHSWIFYFVAALWGVGSALNKTGLSTLLGILYEDKERQDFIFTIYHWWQAVAIFVVYLGSSLPMKAKLAVLLVTLVAAAASYLWMEQKLQQGLVPRQPRIPKPQHKVRGYRYLEEDNSDESDMEGEQGQGDCAEDEAPQAGPLGAEPAGPCRKPCPYEQALGGDGPEEQ
chain 2: LGTLPAFLPCELKPHGLVDCNWLFLKSVPRFSAAASCSNITRLSLISNRIHHLHNSDFVHLSNLRQLNLKWNCPPTGLSPLHFSCHMTIEPRTFLAMRTLEELNLSYNGITTVPRLPSSLVNLSLSHTNILVLDANSLAGLYSLRVLFMDGNCYYKNPCTGAVKVTPGALLGLSNLTHLSLKYNNLTKVPRQLPPSLEYLLVSYNLIVKLGPEDLANLTSLRVLDVGGNCRRCDHAPNPCIECGQKSLHLHPETFHHLSHLEGLVLKDSSLHTLNSSWFQGLVNLSVLDLSENFLYESITHTNAFQNLTRLRKLNLSFNYRKKVSFARLHLASSFKNLVSLQELNMNGIFFRLLNKYTLRWLADLPKLHTLHLQMNFINQAQLSIFGTFRALRFVDLSDNRISGPSTLSEATPEEADDAEQEELLSADPHPAPLSTPASKNFMDRCKNFKFTMDLSRNNLVTIKPEMFVNLSRLQCLSLSHNSIAQAVNGSQFLPLTNLQVLDLSHNKLDLYHWKSFSELPQLQALDLSYNSQPFSMKGIGHNFSFVTHLSMLQSLSLAHNDIHTRVSSHLNSNSVRFLDFSGNGMGRMWDEGGLYLHFFQGLSGLLKLDLSQNNLHILRPQNLDNLPKSLKLLSLRDNYLSFFNWTSLSFLPNLEVLDLAGNQLKALTNGTLPNGTLLQKLDVSSNSIVSVVPAFFALAVELKEVNLSHNILKTVDRSWFGPIVMNLTVLDVRSNPLHCACGAAFVDLLLEVQTKVPGLANGVKCGSPGQLQGRSIFAQDLRLCLDEVLSWDCFGLSLLAVAVGMVVPILHHLCGWDVWYCFHLCLAWLPLLARSRRSAQTLPYDAFVVFDKAQSAVADWVYNELRVRLEERRGRRALRLCLEDRDWLPGQTLFENLWASIYGSRKTLFVLAHTDRVSGLLRTSFLLAQQRLLEDRKDVVVLVILRPDAHRSRYVRLRQRLCRQSVLFWPQQPNGQGGFWAQLSTALTRDNRHFYNQNFCRGPTAE

Variants of: B1
Test: co-immunoprecipitation from isolated phagosomes, band densitometry
Details: with TLR9-myc (in UNC93B1 KO iBMDMs), means ± SD of two independent experiments, parent: 1, read off a plot

| Variant | ratio to parent |
| --- | --- |
| chain 1 N251Q | 1.3 A.U |
| chain 1 N272Q | 1.1 A.U |
